Results published in US20040077046.

B1: C-terminally flag epitope-tagged HDAC4 (protein)
chain: MSSQSHPDGLSGRDQPVELLNPARVNHMPSTVDVATALPLQVAPSAVPMDLRLDHQFSLPVAEPALREQQLQQELLALKQKQQIQRQILIAEFQRQHEQLSRQHEAQLHEHIKQQQEMLAMKHQQELLEHQRKLERHRQEQELEKQHREQKLQQLKNKEKGKESAVASTEVKMKLQEFVLNKKKALAHRNLNHCISSDPRYWYGKTQHSSLDQSSPPQSGVSTSYNHPVLGMYDAKDDFPLRKTASEPNLKLRSRLKQKVAERRSSPLLRRKDGPVVTALKKRPLDVTDSACSSAPGSGPSSPNNSSGSVSAENGIAPAVPSIPAETSLAHRLVAREGSAAPLPLYTSPSLPNITLGLPATGPSAGTAGQQDAERLTLPALQQRLSLFPGTHLTPYLSTSPLERDGGAAHSPLLQHMVLLEQPPAQAPLVTGLGALPLHAQSLVGADRVSPSIHKLRQHRPLGRTQSAPLPQNAQALQHLVIQQQHQQFLEKHKQQFQQQQLQMNKIIPKPSEPARQPESHPEETEEELREHQALLDEPYLDRLPGQKEAHAQAGVQVKQEPIESDEEEAEPPREVEPGQRQPSEQELLFRQQALLLEQQRIHQLRNYQASMEAAGIPVSFGGHRPLSRAQSSPASATFPVSVQEPPTKPRFTTGLVYDTLMLKHQCTCGSSSSHPEHAGRIQSIWSRLQETGLRGKCECIRGRKATLEELQTVHSEAHTLLYGTNPLNRQKLDSKKLLGSLASVFVRLPCGGVGVDSDTIWNEVHSAGAARLAVGCVVELVFKVATGELKNGFAVVRPPGHHAEESTPMGFCYFNSVAVAAKLLQQRLSVSKILIVDWDVHHGNGTQQAFYSDPSVLYMSLHRYDDGNFFPGSGAPDEVGTGPGVGFNVNMAFTGGLDPPMGDAEYLAAFRTVVMPIASEFAPDVVLVSSGFDAVEGHPTPLGGYNLSARCFGYLTKQLMGLAGGRIVLALEGGHDLTAICDASEACVSALLGNELDPLPEKVLQQRPNANAVRSMEKVMEIHSKYWRCLQRTTSTAGRSLIEAQTCENEEAETVTAMASLSVGVKPAEKRPDEEPMEEEPPL
B2: C-terminally flag epitope-tagged HDAC3 (protein)
chain: MAKTVAYFYDPDVGNFHYGAGHPMKPHRLALTHSLVLHYGLYKKMIVFKPYQASQHDMCRFHSEDYIDFLQRVSPTNMQGFTKSLNAFNVGDDCPVFPGLFEFCSRYTGASLQGATQLNNKICDIAINWAGGLHHAKKFEASGFCYVNDIVIGILELLKYHPRVLYIDIDIHHGDGVQEAFYLTDRVMTVSFHKYGNYFFPGTGDMYEVGAESGRYYCLNVPLRDGIDDQSYKHLFQPVINQVVDFYQPTCIVLQCGADSLGCDRLGCFNLSIRGHGECVEYVKSFNIPLLVLGGGGYTVRNVARCWTYETSLLVEEAISEELPYSEYFEYFAPDFTLHPDVSTRIENQNSRQYLDQIRQTIFENLKMLNHAPSVQIHDVPADLLTYDRTDEADAEERGPEENYSRPEAPNEFYDGDHDNDKESDVEI

Biological target: 3H-acetylated histone H4 peptide ([3H]-Ac(H41-24))

Protein | in vitro histone deacetylase assay (release of 3H-acetate from the peptide by immunoprecipitated enzyme)
B1 | HDAC9 could deacetylate the histone peptide substrate at a level that was equivalent to UDAC3 and HDAC4
B2 | HDAC9 could deacetylate the histone peptide substrate at a level that was equivalent to UDAC3 and HDAC4
